Assays:
Raw 264.7 cells [1] = settings: cited from earlier work
Raw 264.7 cells [2] = assay: TRAP staining / osteoclast morphology of Raw 264.7 cells on peptide-coated tissue culture plastic; type: cell-based
Procedure: Raw 264.7 cells were cultured and passaged as previously described. Cell adhesion to OP1_Hyp and OP1_Pro was assessed as shown by Barrow et al.. Briefly, 48-well plates were coated with 10 µg/mL of OSCAR-binding peptides overnight at 4 °C. The excess peptide was then removed by washing with PBS before adding 1% BSA to block non-specific binding sites for 1 h at 25 °C. Raw 264.7 cells were then resuspended at a concentration of 2 × 10^5 cells/mL and added to the well. Cells were cultured with different concentrations of human RANKL (hRANKL) (catalogue number: 310-01 from Peprotech, London, UK) (0–100 ng/mL) for up to 5 days to assess the contribution of the OSCAR-binding peptides OP1_Hyp and OP1_Pro to the differentiation of Raw 264.7 cells to mature OCs.
After 5 days of post-culture, Raw 264.7 cells were fixed in 4% PFA for 15 min at room temperature. TRAP was stained following the manufacturer’s protocol and evaluated by light microscopy (ThermoFisher, Swindon, UK). Multinucleated TRAP+ cells containing more than three nuclei were scored as mature OCs.

| Molecule | OSCAR and TRAP levels, 50 ng/mL RANKL only (Raw 264.7 cells [1]; days 1-4, ref Lampiasi et al. [35]) | Lowest optimal concentration for osteoclastic cell formation (Raw 264.7 cells [1]; ref Song et al. [29]) [ng/mL] | Differentiation, 1 ng/mL hRANKL (Raw 264.7 cells [2]; 5 days on TCP, 1 ng/mL hRANKL) | Average cell diameter of treated cells (Raw 264.7 cells [2]; 5 days, 100 ng/mL hRANKL, TCP with OP1_Hyp or OP1_Pro, untreated cells 38.1 ± 8.8 µm) [µm] |
| --- | --- | --- | --- | --- |
| RANKL: RANK ligand (RANKL), as used in cited studies (protein, UniProt O14788 140-317, looked up) Tumor necrosis factor ligand …: IRAEKAMVDGSWLDLAKRSKLEAQPFAHLTINATDIPSGSHKVSLSSWYHDRGWAKISNMTFSNGKLIVNQDGFYYLYANICFRHHETSGDLATEYLQLMVYVTKTSIKIPSSHTLMKGGSTKYWSGNSEFHFYSINVGGFFKLRSGEEISIEVSNPSLLDPDQDATYFGAFKVRDID | increased significantly between days 1 and 2 of culture before decreasing sharply on days 3 and 4 | 30 |  |  |
| hRANKL: human RANKL (hRANKL) (catalogue number: 310-01 from Peprotech, London, UK) (protein, UniProt O14788 69-317, looked up, extracellular domain) extracellular domain: YFRAQMDPNRISEDGTHCIYRILRLHENADFQDTTLESQDTKLIPDSCRRIKQAFQGAVQKELQHIVGSQHIRAEKAMVDGSWLDLAKRSKLEAQPFAHLTINATDIPSGSHKVSLSSWYHDRGWAKISNMTFSNGKLIVNQDGFYYLYANICFRHHETSGDLATEYLQLMVYVTKTSIKIPSSHTLMKGGSTKYWSGNSEFHFYSINVGGFFKLRSGEEISIEVSNPSLLDPDQDATYFGAFKVRDID |  |  | No differentiation was observed | 273.9 ± 73.4 |

From PMC10779143, “Collagen-like Osteoclast-Associated Receptor (OSCAR)-Binding Motifs Show a Co-Stimulatory Effect on Osteoclastogenesis in a Peptide Hydrogel System” (International Journal of Molecular Sciences, 2023)
